According to patent US20250195679A1, “ANTIBODY-DRUG CONJUGATE AND USE THEREOF” (SHANGHAI HUAOTA BIOPHARMACEUTICAL CO., LTD., priority 2022, published 2025):

B1: Antibody-drug conjugate 1: 900698 antibody cysteine-conjugated to SN-38 via Mc-VC-PAB-DMEDA-PEG linker, DAR about 7.8 (conjugate)
VH: QVQLVESGGGLVKPGGSLRLSCAASGFTFSKYAMSWIRQAPGKGLEWVAEISSGGGYINYADSVKGRFTISRDNAKNSLYLQMNSLRAEDTAVYYCARAIYYYGSSYNYYAMDYWGQGTTVTVSS
VL: DIQMTQSPSSLSASVGDRVTITCRASQDVGTAEAWYQQKPGKAPKLLIYWASTRHTGVPSRFSGSGSGTDFTLTISSLQPEDFATYYCQQYSSYPLTFGQGTKLEIK
B2: Antibody-drug conjugate 2: 900698 antibody cysteine-conjugated to SN-38 via MP2-VC-PAB-DMEDA-PEG linker, DAR about 7.8 (conjugate)
VH: B1 VH
VL: B1 VL

Test system: MDA-MB-231 human breast cancer cells
Assay: MDA-MB-231 triple-negative breast cancer CDX mouse efficacy model (Example 8)
Assay type: in vivo, NPG mice
Conditions: for inhibition of growth of MDA-MB-231 breast cancer: 2.5 and 5 mg/kg i.p. BIW, 8 doses, FIG. 8; for relation of anti-tumor effect to administration dose: 2.5 vs 5 mg/kg i.p. BIW; for inhibitory effect on tumor growth compared with 900698 and Oleclumab: antibodies at 5 mg/kg, i.p. BIW
Description: NPG mice were used to establish an MDA-MB-231 triple-negative breast cancer animal model for assaying the efficacy of the test antibodies. The MDA-MB-231 human breast cancer cells used in this example were incubated in an L-15 medium supplemented with 10% FBS in an incubator at 37° C. without CO2. Before continuous cell culturing for ten generations, about 5.0×10^6 MDA-MB-231 cells were suspended in 100 μL of PBS and then mixed uniformly with an equal volume of Matrigel. The mixture was then inoculated by subcutaneous injection into NPG humanized mice on the right side of the back near the axilla, with an inoculation volume of about 200 μL. The mice were anesthetized with 2%-5% isoflurane prior to the inoculation. On the day of inoculation, 1.0×10^7 PBMCs (100 μL) were injected via the tail vein. When the tumors grew to an average size of about 50-80 mm^3, the […] tumor-bearing mice were randomly divided into 7 groups of 6 based on tumor volume and body weight. […] Oleclumab is an anti-CD73 monoclonal antibody developed by AstraZeneca, currently in Phase 2 clinical trials. The amino acid sequence of the heavy chain of 900201 is as set forth in SEQ ID NO. 43, and the amino acid sequence of the light chain of 900201 is as set forth in SEQ ID NO. 44.

Row | Molecule | inhibition of growth of MDA-MB-231 breast cancer | relation of anti-tumor effect to administration dose | inhibitory effect on tumor growth compared with 900698 and Oleclumab
1 | B1 | significantly inhibit the growth | positively correlated with the administration dose | significantly superior
2 | B2 | significantly inhibit the growth | positively correlated with the administration dose | significantly superior
